The results in this text go back to patent US20250154198A1, “PEPTIDE INHIBITORS OF INTERLEUKIN-23 RECEPTOR” (Zealand Pharma A/S, priority 2021, published 2025).

As a reminder, the Ki is a measure of affinity in units of concentration, obtained from inhibition or displacement. Read a high Ki as lower affinity.

The target of test [1] is T1, human IL-23R endogenously expressed on DB cells (CRL-2289) (human, UniProt Q5VWK5 24-629).
T1 sequence (looked up): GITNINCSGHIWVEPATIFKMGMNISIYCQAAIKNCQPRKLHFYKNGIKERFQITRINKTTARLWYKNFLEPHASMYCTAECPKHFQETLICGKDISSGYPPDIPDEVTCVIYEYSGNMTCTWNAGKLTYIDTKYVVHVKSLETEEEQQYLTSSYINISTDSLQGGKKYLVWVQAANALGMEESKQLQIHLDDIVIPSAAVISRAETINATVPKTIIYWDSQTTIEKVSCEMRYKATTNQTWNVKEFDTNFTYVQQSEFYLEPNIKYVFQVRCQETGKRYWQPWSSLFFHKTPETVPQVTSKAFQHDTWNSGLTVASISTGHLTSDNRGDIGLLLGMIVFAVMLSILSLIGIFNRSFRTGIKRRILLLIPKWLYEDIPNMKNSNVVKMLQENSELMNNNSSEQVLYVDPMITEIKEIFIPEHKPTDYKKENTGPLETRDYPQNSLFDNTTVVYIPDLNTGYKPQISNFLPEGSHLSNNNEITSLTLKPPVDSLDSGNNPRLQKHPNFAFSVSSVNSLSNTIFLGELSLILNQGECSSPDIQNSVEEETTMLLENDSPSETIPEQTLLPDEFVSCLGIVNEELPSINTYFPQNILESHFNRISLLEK
The experiment in a line: cell-based or functional assay.

Test [2] addresses T2, Nluc-IL23R fusion protein (human, UniProt Q5VWK5 22-629).
T2 construct: range 22-629; Stably expressed in HEK293 cells; also called hIL-23R; human IL-23R fused to a Nanoluc luciferase enzyme; not shown: Nanoluc luciferase (Promega N1371 plasmid) at the N-terminus
T2 sequence (looked up): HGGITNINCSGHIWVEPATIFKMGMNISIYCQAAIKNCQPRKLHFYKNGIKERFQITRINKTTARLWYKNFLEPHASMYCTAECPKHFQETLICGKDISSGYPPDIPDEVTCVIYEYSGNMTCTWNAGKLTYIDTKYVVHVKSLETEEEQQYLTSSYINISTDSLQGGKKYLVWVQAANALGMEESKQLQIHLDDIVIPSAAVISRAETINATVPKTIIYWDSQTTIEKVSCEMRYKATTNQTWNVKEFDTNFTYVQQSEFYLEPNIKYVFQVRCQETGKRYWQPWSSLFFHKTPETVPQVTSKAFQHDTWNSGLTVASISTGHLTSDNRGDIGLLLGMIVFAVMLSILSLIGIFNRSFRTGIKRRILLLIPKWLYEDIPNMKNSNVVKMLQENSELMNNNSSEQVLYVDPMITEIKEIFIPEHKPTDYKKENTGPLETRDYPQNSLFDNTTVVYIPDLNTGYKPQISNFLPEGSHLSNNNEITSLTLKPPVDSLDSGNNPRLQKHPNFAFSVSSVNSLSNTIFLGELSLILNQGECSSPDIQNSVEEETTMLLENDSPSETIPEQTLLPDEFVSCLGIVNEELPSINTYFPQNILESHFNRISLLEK
The experiment in a line: BRET displacement of TAMRA-labelled peptide, Nluc-IL23R membranes. For orientation: Bioluminescence resonance energy transfer reports proximity on the nanometre scale.

*1 amine or outer side, *2 acyl side, *3 side chain or, on linkers, in order; H or OH if unused. Bridges are numbered along the chain shown (N, C = ends). [ ]: non-standard residue; d: D form. 1,3‑dibromopropan‑2‑one = linker (CAS 816-39-7) joining two Cys as 1,3-dithio-propan-2-one bridge -SCH2C(=O)CH2S-; Trp(1-Me) = Cn1cc(C[C@H](N)C(=O)O)c2ccccc21; 2Nal = N[C@@H](Cc1ccc2ccccc2c1)C(=O)O; AEF = NCCOc1ccc(C[C@H](N)C(=O)O)cc1; αMeL = CC(C)C[C@](C)(N)C(=O)O; CH2COCH2 = O=C(C[*:1])C[*:2]; αMeK = C[C@](N)(CCCCN)C(=O)O; Abu = CC[C@H](N)C(=O)O

B1: Compound 30 (peptide)
peptide: KSCWQCHXLER
HELM: PEPTIDE1{[ac].K.S.C.W.Q.C.H.[O=C([C@H](Cc1ccc2ccccc2c1)N[*:1])[*:2]].L.E.R.[am]}|CHEM1{[O=C(C[*:1])C[*:2]]}$PEPTIDE1,PEPTIDE1,2:R3-11:R3|PEPTIDE1,CHEM1,4:R3-1:R1|PEPTIDE1,CHEM1,7:R3-1:R2$$$V2.0
SMILES: CC(=O)N[C@H]1CCCCNC(=O)CC[C@@H](C(=O)N[C@@H](CCCNC(=N)N)C(N)=O)NC(=O)[C@H](CC(C)C)NC(=O)[C@H](Cc2ccc3ccccc3c2)NC(=O)[C@H](Cc2c[nH]cn2)NC(=O)[C@@H]2CSCC(=O)CSC[C@H](NC(=O)[C@H](CO)NC1=O)C(=O)N[C@@H](Cc1c[nH]c3ccccc13)C(=O)N[C@@H](CCC(N)=O)C(=O)N2
On to B1, for which, in test [1], the “IC50 (pSTAT3)” value turned out to be 68.6 nM. For the same molecule, in test [2], the affinity corresponds to a Ki of 5.53 nM.

B2: Compound 12 (peptide)
peptide: Ac-ESCWQCWWLK-NH2
modifications: lactam 1-10; linker 3-6 via 1,3‑dibromopropan‑2‑one
On to B2, for which, in test [1], the “IC50 (pSTAT3)” value was > 1 µM. The molecule also showed an inhibitory constant (Ki) in test [2] of 373 nM.

B3: Compound 28 (peptide)
peptide: Ac-DKSCWQC[2Nal][2Nal]LER-NH2
modifications: lactam 2-11; linker 4-7 via CH2COCH2
SMILES: CC(=O)N[C@@H](CC(=O)O)C(=O)N[C@H]1CCCCNC(=O)CC[C@@H](C(=O)N[C@@H](CCCNC(=N)N)C(N)=O)NC(=O)[C@H](CC(C)C)NC(=O)[C@H](Cc2ccc3ccccc3c2)NC(=O)[C@H](Cc2ccc3ccccc3c2)NC(=O)[C@@H]2CSCC(=O)CSC[C@H](NC(=O)[C@H](CO)NC1=O)C(=O)N[C@@H](Cc1c[nH]c3ccccc13)C(=O)N[C@@H](CCC(N)=O)C(=O)N2
Take B3: the “IC50 (pSTAT3)” value in test [1] was determined as 27.4 nM. The molecule also came in with a Ki in test [2] of 4.52 nM.

B4: Compound C (peptide)
peptide: Ac-[Abu]QTWQC[AEF]W[αMeK]ENG-NH2
modifications: thioether 1-6
For the molecule B4, the “IC50 (pSTAT3)” value in test [1] came out at 13.8 nM. In test [2], this molecule yielded a Ki of 2.11 nM.

B5: Compound 27 (peptide)
peptide: Ac-KSC[Trp(1-Me)]QCW[2Nal]LER-NH2
modifications: lactam 1-10; linker 3-6 via CH2COCH2
SMILES: CC(=O)N[C@H]1CCCCNC(=O)CC[C@@H](C(=O)N[C@@H](CCCNC(=N)N)C(N)=O)NC(=O)[C@H](CC(C)C)NC(=O)[C@H](Cc2ccc3ccccc3c2)NC(=O)[C@H](Cc2c[nH]c3ccccc23)NC(=O)[C@@H]2CSCC(=O)CSC[C@H](NC(=O)[C@H](CO)NC1=O)C(=O)N[C@@H](Cc1cn(C)c3ccccc13)C(=O)N[C@@H](CCC(N)=O)C(=O)N2
Take B5: the “IC50 (pSTAT3)” value in test [1] worked out at 15.5 nM. The molecule further came in with a Ki in test [2] of 1.77 nM.

B6: Compound 1 (peptide)
peptide: DCSCWQCWWXCR
modifications: H-DC(1a)SC(2a)WQC(2a)WW[2-Me-Leu]C(1a)R-[NH2]; (1a)=[2,11] and (2a)=[4,7] 1,3-dithio-propan-2-one bridges
Consider B6, for which, in test [1], the “IC50 (pSTAT3)” value is 783 nM. In addition, in test [2], the affinity, expressed as Ki, was 79.8 nM.

B7: Compound 47 (peptide)
peptide: Ac-KSCWQC[AEF][2Nal][αMeL]ER-NH2
modifications: lactam 1-10; linker 3-6 via CH2COCH2
SMILES: CC(=O)N[C@H]1CCCCNC(=O)CC[C@@H](C(=O)N[C@@H](CCCNC(=N)N)C(N)=O)NC(=O)[C@](C)(CC(C)C)NC(=O)[C@H](Cc2ccc3ccccc3c2)NC(=O)[C@H](Cc2ccc(OCCN)cc2)NC(=O)[C@@H]2CSCC(=O)CSC[C@H](NC(=O)[C@H](CO)NC1=O)C(=O)N[C@@H](Cc1c[nH]c3ccccc13)C(=O)N[C@@H](CCC(N)=O)C(=O)N2
In the case of B7, in test [1], the “IC50 (pSTAT3)” value came to 17.2 nM. In test [2], this molecule displayed a Ki of 0.624 nM.

B8: Compound 31 (peptide)
peptide: KSCWQCWXLER
HELM: PEPTIDE1{[ac].K.S.C.W.Q.C.W.[O=C([C@H](Cc1ccc(F)cc1)N[*:1])[*:2]].L.E.R.[am]}|CHEM1{[O=C(C[*:1])C[*:2]]}$PEPTIDE1,PEPTIDE1,2:R3-11:R3|PEPTIDE1,CHEM1,4:R3-1:R1|PEPTIDE1,CHEM1,7:R3-1:R2$$$V2.0
SMILES: CC(=O)N[C@H]1CCCCNC(=O)CC[C@@H](C(=O)N[C@@H](CCCNC(=N)N)C(N)=O)NC(=O)[C@H](CC(C)C)NC(=O)[C@H](Cc2ccc(F)cc2)NC(=O)[C@H](Cc2c[nH]c3ccccc23)NC(=O)[C@@H]2CSCC(=O)CSC[C@H](NC(=O)[C@H](CO)NC1=O)C(=O)N[C@@H](Cc1c[nH]c3ccccc13)C(=O)N[C@@H](CCC(N)=O)C(=O)N2
In the case of B8, in test [1], the “IC50 (pSTAT3)” value was found to be 968 nM. For the same molecule, the Ki in test [2] came out at 76.3 nM.

B9: Compound 55 (peptide)
peptide: DEQCWQCYWXKR
HELM: PEPTIDE1{[ac].D.E.Q.C.W.Q.C.Y.W.[CC(C)C[C@](C)(N[*:1])C(=O)[*:2]].K.R.[am]}|CHEM1{[O=C(C[*:1])C[*:2]]}$PEPTIDE1,PEPTIDE1,3:R3-12:R3|PEPTIDE1,CHEM1,5:R3-1:R1|PEPTIDE1,CHEM1,8:R3-1:R2$$$V2.0
SMILES: CC(=O)N[C@@H](CC(=O)O)C(=O)N[C@H]1CCC(=O)NCCCC[C@@H](C(=O)N[C@@H](CCCNC(=N)N)C(N)=O)NC(=O)[C@](C)(CC(C)C)NC(=O)[C@H](Cc2c[nH]c3ccccc23)NC(=O)[C@H](Cc2ccc(O)cc2)NC(=O)[C@@H]2CSCC(=O)CSC[C@H](NC(=O)[C@H](CCC(N)=O)NC1=O)C(=O)N[C@@H](Cc1c[nH]c3ccccc13)C(=O)N[C@@H](CCC(N)=O)C(=O)N2
For B9, the “IC50 (pSTAT3)” value in test [1] is > 1 µM. This molecule also had a Ki in test [2] of 272 nM.

B10: Compound 11 (peptide)
peptide: Ac-DESCWQCWWLK-NH2
modifications: lactam 2-11; linker 4-7 via 1,3‑dibromopropan‑2‑one
Take B10: the “IC50 (pSTAT3)” value in test [1] was > 1 µM. Besides, in test [2], affinity was put at a Ki of 706 nM.

B11: Compound 25 (peptide)
peptide: Ac-KSC[2Nal]QCW[2Nal]LER-NH2
modifications: lactam 1-10; linker 3-6 via CH2COCH2
SMILES: CC(=O)N[C@H]1CCCCNC(=O)CC[C@@H](C(=O)N[C@@H](CCCNC(=N)N)C(N)=O)NC(=O)[C@H](CC(C)C)NC(=O)[C@H](Cc2ccc3ccccc3c2)NC(=O)[C@H](Cc2c[nH]c3ccccc23)NC(=O)[C@@H]2CSCC(=O)CSC[C@H](NC(=O)[C@H](CO)NC1=O)C(=O)N[C@@H](Cc1ccc3ccccc3c1)C(=O)N[C@@H](CCC(N)=O)C(=O)N2
With B11, in test [1], the “IC50 (pSTAT3)” value is > 1 µM. The same molecule displayed a Ki in test [2] of 185 nM.

B12: Compound 32 (peptide)
peptide: KSCWQCWXLER
HELM: PEPTIDE1{[ac].K.S.C.W.Q.C.W.[Cn1cc(C[C@H](N[*:1])C(=O)[*:2])c2ccccc21].L.E.R.[am]}|CHEM1{[O=C(C[*:1])C[*:2]]}$PEPTIDE1,PEPTIDE1,2:R3-11:R3|PEPTIDE1,CHEM1,4:R3-1:R1|PEPTIDE1,CHEM1,7:R3-1:R2$$$V2.0
SMILES: CC(=O)N[C@H]1CCCCNC(=O)CC[C@@H](C(=O)N[C@@H](CCCNC(=N)N)C(N)=O)NC(=O)[C@H](CC(C)C)NC(=O)[C@H](Cc2cn(C)c3ccccc23)NC(=O)[C@H](Cc2c[nH]c3ccccc23)NC(=O)[C@@H]2CSCC(=O)CSC[C@H](NC(=O)[C@H](CO)NC1=O)C(=O)N[C@@H](Cc1c[nH]c3ccccc13)C(=O)N[C@@H](CCC(N)=O)C(=O)N2
On to B12, for which the “IC50 (pSTAT3)” value in test [1] was 118 nM. The same molecule gave a Ki in test [2] of 14.2 nM.

B13: Compound 57 (peptide)
peptide: Ac-DETCWQCW[2Nal][αMeL]KR-NH2
modifications: lactam 2-11; linker 4-7 via CH2COCH2
SMILES: CC(=O)N[C@@H](CC(=O)O)C(=O)N[C@H]1CCC(=O)NCCCC[C@@H](C(=O)N[C@@H](CCCNC(=N)N)C(N)=O)NC(=O)[C@](C)(CC(C)C)NC(=O)[C@H](Cc2ccc3ccccc3c2)NC(=O)[C@H](Cc2c[nH]c3ccccc23)NC(=O)[C@@H]2CSCC(=O)CSC[C@H](NC(=O)[C@H]([C@@H](C)O)NC1=O)C(=O)N[C@@H](Cc1c[nH]c3ccccc13)C(=O)N[C@@H](CCC(N)=O)C(=O)N2
As to B13, the “IC50 (pSTAT3)” value in test [1] is 167 nM. Moreover, the Ki in test [2] was found to be 68 nM.
